From patent US20150351390A1, “COMPOSITIONS AND METHODS FOR AUXIN-ANALOG CONJUGATION” (PIONEER HI-BRED INTERNATIONAL, INC., priority 2012, published 2015) come the findings set out here.

The nature of series [1]: LC-MS assay of GH3 conjugation of IAA with Asp or Glu. In kind it is biochemical. Particulars: for kcat (hrs−1) IAA-Asp: conjugation of IAA with Asp by recombinant GH3 protein, IAA-Asp product by LC-MS; for kcat (hrs−1) IAA-Glu: conjugation of IAA with Glu by recombinant GH3 protein, IAA-Glu product by LC-MS. The method, boiled down: (§1)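 Kinetic parameters come from Michaelis-Menten fits of initial velocities. Velocities reflect LC-MS quantification, against standards, of Asp or Glu conjugates formed by purified GH3 (44 to 164 μg/mL) with 5 mM ATP and MgCl2 at pH 8.0, 30° C.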

Series [2] can be described thus: LC-MS assay of GH3 conjugation of 2,4-D with Asp or Glu. It counts as biochemical. To be noted: 5 mM 2,4-D substrate; for kcat (hrs−1) 2,4-D-Asp: conjugation of 2,4-D with Asp by recombinant GH3 protein, 2,4-D-Asp product by LC-MS; for kcat (hrs−1) 2,4-D-Glu: conjugation of 2,4-D with Glu by recombinant GH3 protein, 2,4-D-Glu product by LC-MS. In outline:
as §1

B1: AIGH3-17: GH3 protein, accession XP_002890761 (protein, listed as Arabidopsis lyrata)
chain: MIPSYDPNDTEAGLKLLDDLTTNAETIQQQVLHQILSQNSGTQYLRAFLDGESDKNQQSFKNKVPVVNYDDIKPFIQRIADGESYDIVSAQPITELLTSSGTSAGKPKLMPSTAEELDRKTFFYSMLVPIMNKYVNGLDEGKGMYLLFIKPEIKTPSGLMARPVLTSYYKSQHFRNRPFNKYNVYTSPDQTILCQDSKQSMYCQLLCGLVQRSHVLRVGAVFASAFLRAVKFLEDHYKELCADIRTGTVTSWITNSSCRDSVLSILNGPNQELADEIESECAEKSWEGILRRIWPKAKYVEVIVTGSMAQYIPTLEFYSGGLPLVSTMYASSECYFGINLNPLCDPADVSYTLLPNMAYFEFLPVDDKSHEEIHFASHSNTDDDDDALKEDLIVDLVNVKVGQYYEIVITTFTGLYRYRVGDILKVTGFHNKAPQFRFVQRRNVVLSIDTDKTSEEDLLNAVTQAKLNHLQHPSSLLLMEYTSYADTSSIPGHYVLFWELKPRHSNDPPKLDDKTMDDCCSEVEDCLDYVYRRCRNRDKSIGPLEIRVVSLGTFDSLMDFCVSQGSSLNQYKTPRCVKSGGALEILDSRVIGRFFSKRVPQWEPLGLDS
As to B1, in series [1], the “kcat (hrs−1) IAA-Asp” value turned out to be 33.508 h⁻¹ and the “kcat (hrs−1) IAA-Glu” value came to 317.690 h⁻¹. In series [2], the “kcat (hrs−1) 2,4-D-Asp” value is 0.212 h⁻¹ and the “kcat (hrs−1) 2,4-D-Glu” value came to 0.455 h⁻¹.

B2: VvGH3-5: GH3 protein, accession XP_002276241 (protein, listed as Vitis vinifera)
chain: MPEAPKNRGNGAGLGVEGGILDDKNIRALEFIEDVTMNAKEVQMQVLSEIITRNSNVEYLQRHGLNGRVDADTFKKIVPVVTYEDMLPDIERIANGDMSPILCSKPISEFLTSSGTSGGERKLMPTIEEELGRRSLLYSLLMPVMNQSVPGLDEGKGMYFLFVKSEAKTPGGLMARPVLTSYYKSSYFRDRPYDPYTNYTSPNETILCPDSYQSMYSQLLCGLCQNKEVLRVGAVFASGFIRAIRFLEKHWVLLCKDIRAGTLDSQINDPSVREAVKRILKPNPELADFIEAECRRESWEGIITRLWPNTKYIDVIVTGTMSQYIPTLDYYSNGLPLVCTMYASSECYFGLNLNPLCKPSEVSYTLIPTMAYFEFLPVNRKNGFTNVSESAPLNEKEHQELVDLVDVKLGQEYELVVTTYAGLYRYRVGDILCVAGFKNKAPQFKFICRKNVALSIDSDKTDEFELQNAVKNAADHLLQFDASVTEYTSYADTSTIPGHYVLYWEIGLSGATPIPPSVFEDCCLIMEESLNSVYRQGRASDKSIGPLEIRIVEGGTFDKLMDYALSQGASINQYKTPRCVKYAPIIELLNSRVVSNYFSPKCPKWVAGHKQWCT
Take B2: in series [1], the “kcat (hrs−1) IAA-Asp” value worked out at 759.486 h⁻¹ and the “kcat (hrs−1) IAA-Glu” value was 47.289 h⁻¹. In series [2], the “kcat (hrs−1) 2,4-D-Asp” value was 2.603 h⁻¹ and the “kcat (hrs−1) 2,4-D-Glu” value amounted to 0.974 h⁻¹.
